Where only a bound is given, the exact number is not on record here.

This assay concerns the target human folate receptor 1 (human, UniProt P15328 25-234). Description: cell-based or functional assay.

human folate receptor 1, sequence (P15328 25-234): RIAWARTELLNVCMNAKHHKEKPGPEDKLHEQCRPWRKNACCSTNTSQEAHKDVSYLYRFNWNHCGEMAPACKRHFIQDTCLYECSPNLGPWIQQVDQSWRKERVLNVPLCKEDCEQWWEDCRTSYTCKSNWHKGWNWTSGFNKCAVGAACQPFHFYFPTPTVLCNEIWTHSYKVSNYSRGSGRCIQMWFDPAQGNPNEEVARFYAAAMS

B1: huFOLR1-SPDB-1f conjugate (antibody, human IgG1, kappa, V domains shown)
VH: QVQLVQSGAEVVKPGASVKISCKASGYTFTGYFMNWVKQSPGQSLEWIGRIHPYDGDTFYNQKFQGKATLTVDKSSNTAHMELLSLTSEDFAVYYCTRYDGSRAMDYWGQGTTVTVSS
VL: DIVLTQSPLSLAVSLGQPAIISCKASQSVSFAGTSLMHWYHQKPGQQPRLLIYRASNLEAGVPDRFSGSGSKTDFTLTISPVEAEDAATYYCQQSREYPYTFGGGTKLEIKR
modifications: compound 1f linked through the SPDB linker; positions not given
On to B1, for which the “fold loss of cytotoxic potency when blocked with unconjugated antibody” value was determined as 40 fold, the “fold reduction of cytotoxic effect on KB cells by an excess of unconjugated huFOLR1 antibody” value is greater than 40 fold and the “in vitro cytotoxicity IC50 on antigen positive KB cells” value was 0.055 nM.
